Reference: patent US20260098059A1 (ENDOMET BIOSCIENCES, published 2026)
Several values for one entry are separate records, joined by “and”; a condition that tells them apart may be missing. Identical values can stand only once. Bridges are numbered along the chain shown (N, C = ends). Where no end group is shown, it is not given here. [ ]: non-standard residue; d: D form. The star is where a group is joined. NMeW = CN[C@@H](Cc1c[nH]c2ccccc12)C(=O)O; Stearoyl = CCCCCCCCCCCCCCCCCC(=O)*; Chg = N[C@H](C(=O)O)C1CCCCC1; NMeA = CN[C@@H](C)C(=O)O

T1: β-catenin (UniProt P35222 134-665, limits assumed, biotinylated in the SPR and plate assays)
T1 construct: also called beta catenin; biotinylated β-catenin
T1 sequence (looked up): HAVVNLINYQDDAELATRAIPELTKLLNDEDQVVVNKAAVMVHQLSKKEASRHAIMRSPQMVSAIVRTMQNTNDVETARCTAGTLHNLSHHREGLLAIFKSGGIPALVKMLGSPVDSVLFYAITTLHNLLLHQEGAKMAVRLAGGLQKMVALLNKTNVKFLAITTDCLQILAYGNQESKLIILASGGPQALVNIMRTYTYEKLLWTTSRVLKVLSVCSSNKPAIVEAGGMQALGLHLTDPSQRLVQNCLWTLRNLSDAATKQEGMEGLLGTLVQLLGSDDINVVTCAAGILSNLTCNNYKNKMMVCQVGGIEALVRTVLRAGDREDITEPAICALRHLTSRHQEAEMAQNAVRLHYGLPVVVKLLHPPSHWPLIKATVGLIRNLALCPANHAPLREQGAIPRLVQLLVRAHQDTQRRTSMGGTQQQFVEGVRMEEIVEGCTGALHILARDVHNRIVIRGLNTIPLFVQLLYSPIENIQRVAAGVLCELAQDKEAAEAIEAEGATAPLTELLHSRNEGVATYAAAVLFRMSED

B1: SEQ ID NO: 424 (peptide)
peptide: WAQXILDEHGQRVWG
HELM: PEPTIDE1{[ac].W.[meA].Q.[Orn].I.L.D.E.H.[O=C([C@@H](N[*:1])C1CCCCC1)[*:2]].Q.R.V.W.G.[am]}$PEPTIDE1,PEPTIDE1,5:R3-9:R3$$$V2.0
SMILES: CC[C@H](C)[C@@H]1NC(=O)[C@@H](NC(=O)[C@H](CCC(N)=O)NC(=O)[C@H](C)N(C)C(=O)[C@H](Cc2c[nH]c3ccccc23)NC(C)=O)CCCNC(=O)CC[C@@H](C(=O)N[C@@H](Cc2c[nH]cn2)C(=O)N[C@H](C(=O)N[C@@H](CCC(N)=O)C(=O)N[C@@H](CCCNC(=N)N)C(=O)N[C@H](C(=O)N[C@@H](Cc2c[nH]c3ccccc23)C(=O)NCC(N)=O)C(C)C)C2CCCCC2)NC(=O)[C@H](CC(=O)O)NC(=O)[C@H](CC(C)C)NC1=O
B2: SEQ ID NO: 455 (peptide)
peptide: WXQKILNDHGQRVW
HELM: PEPTIDE1{[ac].W.[Aib].Q.K.I.L.N.D.H.[O=C([C@@H](N[*:1])C1CCCCC1)[*:2]].Q.R.V.W.[am]}$PEPTIDE1,PEPTIDE1,5:R3-9:R3$$$V2.0
SMILES: CC[C@H](C)[C@@H]1NC(=O)[C@@H](NC(=O)[C@H](CCC(N)=O)NC(=O)C(C)(C)NC(=O)[C@H](Cc2c[nH]c3ccccc23)NC(C)=O)CCCCNC(=O)C[C@@H](C(=O)N[C@@H](Cc2c[nH]cn2)C(=O)N[C@H](C(=O)N[C@@H](CCC(N)=O)C(=O)N[C@@H](CCCNC(=N)N)C(=O)N[C@H](C(=O)N[C@@H](Cc2c[nH]c3ccccc23)C(N)=O)C(C)C)C2CCCCC2)NC(=O)[C@H](CC(N)=O)NC(=O)[C@H](CC(C)C)NC1=O
B3: SEQ ID NO: 429 (peptide)
peptide: RRWPQKILDEHVRRVWR
HELM: PEPTIDE1{[ac].R.R.W.P.Q.K.I.L.D.E.H.V.R.R.V.W.R.[am]}$PEPTIDE1,PEPTIDE1,7:R3-11:R3$$$V2.0
SMILES: CC[C@H](C)[C@@H]1NC(=O)[C@@H](NC(=O)[C@H](CCC(N)=O)NC(=O)[C@@H]2CCCN2C(=O)[C@H](Cc2c[nH]c3ccccc23)NC(=O)[C@H](CCCNC(=N)N)NC(=O)[C@H](CCCNC(=N)N)NC(C)=O)CCCCNC(=O)CC[C@@H](C(=O)N[C@@H](Cc2c[nH]cn2)C(=O)N[C@H](C(=O)N[C@@H](CCCNC(=N)N)C(=O)N[C@@H](CCCNC(=N)N)C(=O)N[C@H](C(=O)N[C@@H](Cc2c[nH]c3ccccc23)C(=O)N[C@@H](CCCNC(=N)N)C(N)=O)C(C)C)C(C)C)NC(=O)[C@H](CC(=O)O)NC(=O)[C@H](CC(C)C)NC1=O
B4: SEQ ID NO: 426 (peptide)
peptide: WAQEILDKHGQRVWG
HELM: PEPTIDE1{[ac].W.[meA].Q.E.I.L.D.K.H.[O=C([C@@H](N[*:1])C1CCCCC1)[*:2]].Q.R.V.W.G.[am]}$PEPTIDE1,PEPTIDE1,5:R3-9:R3$$$V2.0
SMILES: CC[C@H](C)[C@@H]1NC(=O)[C@@H](NC(=O)[C@H](CCC(N)=O)NC(=O)[C@H](C)N(C)C(=O)[C@H](Cc2c[nH]c3ccccc23)NC(C)=O)CCC(=O)NCCCC[C@@H](C(=O)N[C@@H](Cc2c[nH]cn2)C(=O)N[C@H](C(=O)N[C@@H](CCC(N)=O)C(=O)N[C@@H](CCCNC(=N)N)C(=O)N[C@H](C(=O)N[C@@H](Cc2c[nH]c3ccccc23)C(=O)NCC(N)=O)C(C)C)C2CCCCC2)NC(=O)[C@H](CC(=O)O)NC(=O)[C@H](CC(C)C)NC1=O
B5: SEQ ID NO: 450 (peptide)
peptide: WAESILKEHVQRVWG
HELM: PEPTIDE1{[ac].W.[meA].E.S.I.L.K.E.H.V.Q.R.V.W.G.[am]}$PEPTIDE1,PEPTIDE1,4:R3-8:R3$$$V2.0
SMILES: CC[C@H](C)[C@@H]1NC(=O)[C@H](CO)NC(=O)[C@@H](NC(=O)[C@H](C)N(C)C(=O)[C@H](Cc2c[nH]c3ccccc23)NC(C)=O)CCC(=O)NCCCC[C@@H](C(=O)N[C@@H](CCC(=O)O)C(=O)N[C@@H](Cc2c[nH]cn2)C(=O)N[C@H](C(=O)N[C@@H](CCC(N)=O)C(=O)N[C@@H](CCCNC(=N)N)C(=O)N[C@H](C(=O)N[C@@H](Cc2c[nH]c3ccccc23)C(=O)NCC(N)=O)C(C)C)C(C)C)NC(=O)[C@H](CC(C)C)NC1=O
B6: SEQ ID NO: 433 (peptide)
peptide: AQKILNEHGQRVWG
HELM: PEPTIDE1{[ac].[meA].Q.K.I.L.N.E.H.[O=C([C@@H](N[*:1])C1CCCCC1)[*:2]].Q.R.V.W.G.[am]}$PEPTIDE1,PEPTIDE1,4:R3-8:R3$$$V2.0
SMILES: CC[C@H](C)[C@@H]1NC(=O)[C@@H](NC(=O)[C@H](CCC(N)=O)NC(=O)[C@H](C)N(C)C(C)=O)CCCCNC(=O)CC[C@@H](C(=O)N[C@@H](Cc2c[nH]cn2)C(=O)N[C@H](C(=O)N[C@@H](CCC(N)=O)C(=O)N[C@@H](CCCNC(=N)N)C(=O)N[C@H](C(=O)N[C@@H](Cc2c[nH]c3ccccc23)C(=O)NCC(N)=O)C(C)C)C2CCCCC2)NC(=O)[C@H](CC(N)=O)NC(=O)[C@H](CC(C)C)NC1=O
B7: SEQ ID NO: 423 (peptide)
peptide: WAQXILDEHGQRVWG
HELM: PEPTIDE1{W.[meA].Q.[Orn].I.L.D.E.H.[O=C([C@@H](N[*:1])C1CCCCC1)[*:2]].Q.R.V.W.G.[am]}$PEPTIDE1,PEPTIDE1,4:R3-8:R3$$$V2.0
SMILES: CC[C@H](C)[C@@H]1NC(=O)[C@@H](NC(=O)[C@H](CCC(N)=O)NC(=O)[C@H](C)N(C)C(=O)[C@@H](N)Cc2c[nH]c3ccccc23)CCCNC(=O)CC[C@@H](C(=O)N[C@@H](Cc2c[nH]cn2)C(=O)N[C@H](C(=O)N[C@@H](CCC(N)=O)C(=O)N[C@@H](CCCNC(=N)N)C(=O)N[C@H](C(=O)N[C@@H](Cc2c[nH]c3ccccc23)C(=O)NCC(N)=O)C(C)C)C2CCCCC2)NC(=O)[C@H](CC(=O)O)NC(=O)[C@H](CC(C)C)NC1=O
B8: SEQ ID NO: 425 (peptide)
peptide: WAQXILDEHGQRVWG
HELM: PEPTIDE1{[CCCCCCCCC(=O)[*:2]].W.[meA].Q.[Orn].I.L.D.E.H.[O=C([C@@H](N[*:1])C1CCCCC1)[*:2]].Q.R.V.W.G.[am]}$PEPTIDE1,PEPTIDE1,5:R3-9:R3$$$V2.0
SMILES: CCCCCCCCC(=O)N[C@@H](Cc1c[nH]c2ccccc12)C(=O)N(C)[C@@H](C)C(=O)N[C@@H](CCC(N)=O)C(=O)N[C@H]1CCCNC(=O)CC[C@@H](C(=O)N[C@@H](Cc2c[nH]cn2)C(=O)N[C@H](C(=O)N[C@@H](CCC(N)=O)C(=O)N[C@@H](CCCNC(=N)N)C(=O)N[C@H](C(=O)N[C@@H](Cc2c[nH]c3ccccc23)C(=O)NCC(N)=O)C(C)C)C2CCCCC2)NC(=O)[C@H](CC(=O)O)NC(=O)[C@H](CC(C)C)NC(=O)[C@H]([C@@H](C)CC)NC1=O
B9: SEQ ID NO: 427 (peptide)
peptide: W[NMeA]QEILDKH[Chg]QRVWG-NH2
modifications: lactam 4-8; not fully specified (N-terminus); printed as H17C8C(O)NH-W-NMeA-QE*ILDK*H-Chg-QRVWG-NH2
B10: SEQ ID NO: 434 (peptide)
peptide: [NMeA]QKILNEH[Chg]QRVWG-NH2
modifications: lactam 3-7; not fully specified (N-terminus); printed as H23C11C(O)NH-NMeA-QK*ILNE*H-Chg-QRVWG-NH2
B11: SEQ ID NO: 446 (peptide)
peptide: WAQKILDEHGQRVW
HELM: PEPTIDE1{[ac].W.[meA].Q.K.I.L.D.E.H.[O=C([C@@H](N[*:1])C1CCCCC1)[*:2]].Q.R.V.W.[am]}$PEPTIDE1,PEPTIDE1,5:R3-9:R3$$$V2.0
SMILES: CC[C@H](C)[C@@H]1NC(=O)[C@@H](NC(=O)[C@H](CCC(N)=O)NC(=O)[C@H](C)N(C)C(=O)[C@H](Cc2c[nH]c3ccccc23)NC(C)=O)CCCCNC(=O)CC[C@@H](C(=O)N[C@@H](Cc2c[nH]cn2)C(=O)N[C@H](C(=O)N[C@@H](CCC(N)=O)C(=O)N[C@@H](CCCNC(=N)N)C(=O)N[C@H](C(=O)N[C@@H](Cc2c[nH]c3ccccc23)C(N)=O)C(C)C)C2CCCCC2)NC(=O)[C@H](CC(=O)O)NC(=O)[C@H](CC(C)C)NC1=O

What follows are binders tested against T1, β-catenin (assay: competitive FP).
Text: Fluorescence polarization (FP) is another method used to analyze protein-ligand interactions. This methodology measures the change in fluorescence light emitted by a labelled compound free vs. conjugated to another compound in solution. Upon binding of the fluorescent molecule to a complex, polarization increases because of limited rotation of the fluorescent tracer. Competitive FP is often utilized in drug screens as it is formatted for high throughput screens in a plate format. This immunoassay is performed by introducing a non-conjugated drug to compete for binding to the labelled competitor-ligand complex, leading to a reduction in polarization. […] Exemplary methodology is described in Example 13. Data were analyzed and plotted in Microsoft Excel (Microsoft, Redmond, WA).
Varying concentrations of β-catenin inhibitor candidate (SEQ ID NO: 404) were then added in a series of serial dilutions from 10 nM to 30 uM of inhibitor in different wells of the plate. The fluorescence polarization was read by Infinite M1000 (Tecan, Baldwin Park CA) at excitation wavelength of 470 nm and measured at emission wavelength of 520 nm. […] The experiments were performed three times and data were analyzed and plotted in Microsoft Excel (Microsoft, Redmond, WA).
For Ac-W[NMeA]QKILDEH[Chg]EDVWK-NH2 (lactam 11-15, 4-8 (inferred)) [SEQ ID NO: 464], the Kd was > 400 nM and ≤ 1000 nM.
For B1, the Kd was ≤ 400 nM.
In the case of Ac-W[NMeA]QKILNDH[Chg]QAVW-NH2 (lactam 4-8) [SEQ ID NO: 458], the Kd is reported as > 400 nM and ≤ 1000 nM.
With B2 the Kd was ≤ 400 nM.
Stearoyl-GW[NMeW]ESILDEHVQRVWG-OH [SEQ ID NO: 2] was tested, and the Kd was ≤ 400 nM.
B3 was tested, and the Kd was > 400 nM and ≤ 1000 nM.
B4 was tested, and the Kd was ≤ 400 nM.
For B5, the Kd was > 400 nM and ≤ 1000 nM.
B6 was tested, and the Kd was > 400 nM and ≤ 1000 nM.
B7 was tested, and the Kd was > 400 nM and ≤ 1000 nM.
MMVQSLFVPPVK (not fully specified; cyclo-glutaryl-*MM-NMeNva-QSLF-NMeNva-PP-NMeNva-K*-CONH2) [SEQ ID NO: 3] was tested, and the Kd was > 10000 nM and ≤ 30000 nM.
B8 was tested, and the Kd was ≤ 400 nM.
B9 was tested, and the Kd was ≤ 400 nM.
For B10, the Kd was ≤ 400 nM.
In the case of B11, the Kd is reported as ≤ 400 nM.
